Experimental findings from US11447550B2, “Peptides for molecular detection of PD-L1” (THE CURATORS OF THE UNIVERSITY OF MISSOURI, priority 2016, dated 2022) are described below.

Ends that are not written are not given here.

Test [1] concerns the target T1, PD-L1 (Homo sapiens, UniProt Q9NZQ7). The experiment in a line: Flow cytometry using patient tissues and whole blood. It counts as cell-based. The arrangement: Seven PD-L1 expressing NSCLC patient tissues were obtained from the MU OneHealth tissue bank; tissue MU OneHealth tissue bank; U.S. Biomax (TMA) LC1923; host or cells: FFPE placenta, seven NSCLC patient tissues, 192-case lung cancer tissue microarray, four Hodgkin's lymphoma cases. Here is the method: Cases were evaluated using flow cytometry for suspected hematopoietic neoplasms. A portion of each fresh specimen was collected into RPMI. […] Any erythrocytes within the specimens were lysed with BD PharmLyse (San Jose, Calif.) and the specimens were washed with BD Staining Buffer with BSA (San Jose, Calif.). Each sample was evaluated using BD FACSCanto II, a three laser, eight-color flow cytometer (San Jose, Calif.) within 24 hours of collection. 50,000 events were collected for each sample. The expression data were analyzed using BD FACSDiva software, version 8.0 (San Jose, Calif.). Cases diagnosed as non-hematopoietic tumors were further subjected to evaluation with PDL-1 peptide if material was available combined with CK to identify the epithelial component. The cell suspensions were stained with 10 μl of BD Cytokeratin FITC (clone CAM5.2), 20 μl of Cy5-conjugated peptide solution, and 10 μl of BD Pharmingen CD274 PE (clone MIH1), incubated in the dark for 30 minutes, washed with BD Stain Buffer with BSA, and reconstituted to 500 μl with Stain Buffer with BSA in […] polystyrene tubes for analysis. The specimens were analyzed on the FACS Canto II using the same panel template, gating strategy, and collection events as the cell line specimens.
PD-L1 expression in patient tissues was analyzed using RK-10-Cy5 and compared to expression in MDA-MB-231 cells and a negative control of normal blood (FIG. 7A). The MFI of the MDA-MB-231 cells was 9,448, while the whole blood gave an MFI of −123. Squamous cell carcinoma and metastatic melanoma samples were investigated for PD-L1 expression using the previously mentioned MFIs as high and negative, respectively. The squamous cell carcinoma was shown as having an MFI of 107,808, while the melanoma sample gave an MFI of 1,250. […] Since […] is consistent with circulating tumor cells, it was thought that RK-10-Cy5 peptide could be used to detect CTCs. To see whether detection of low cell counts was possible, whole blood samples were spiked with MDA-MB-231 cells. MDA-MB-231 were diluted with whole blood, then treated with RK-10-Cy5 and cytokeratin before staining. These samples were also treated with a phycoerythrin-conjugated antibody (cd274) against PD-L1 to further verify PD-L1 detection. Positive signals were detected of cytokeratin and PD-L1 expression at low counts of ˜15 cells in 1 mL whole blood sample using both the peptide and the antibody (FIG. 7B).

Test [2] addresses T1, PD-L1. In words: Flow cytometry using cultured cell lines with Cy5-conjugated peptide. It counts as cell-based. The arrangement: Seven PD-L1 expressing NSCLC patient tissues were obtained from the MU OneHealth tissue bank; tissue MU OneHealth tissue bank; U.S. Biomax (TMA) LC1923; host or cells: FFPE placenta, seven NSCLC patient tissues, 192-case lung cancer tissue microarray, four Hodgkin's lymphoma cases. Particulars: for MFI relative to MDA-MB-231: all lower peptide concentrations, FIG. 6A. The protocol: Cell lines MDA-MB-231, Y79, and MCF-7 were purchased from ATCC, thawed, and grown in culture to confluency. When confluent, adherent cells were removed from the flask by scraping gently with a cell scraper and media removed using centrifugation. Suspension cells were pipetted from the flask and centrifuged to remove media. Cell lines were resuspended in Eppendorf tubes in 100 μL PBS at a concentration of 5×10^6 cells per mL. Cy5-conjugated peptide solution was then added to the tubes to make the desired concentration of peptide in 200 μL. Eppendorf tubes were then placed in the incubator for 1 hour and vortexed at the 30-minute mark. After 1 hour, cell lines were analyzed on a BD FACS Canto II, a 3-laser, 8-color flow cytometer (San Jose, Calif.) using Diva 8.0 acquisition and analysis software (San Jose, Calif.). The cells of interest were gated using Forward and Side scatter (FSC/SSC) and positive antibody expression. 10,000 singlet events were collected for each specimen.
RK-10-Cy5 was then investigated for PD-L1 specificity using flow cytometry in cultured cell lines and patient tissues. […] To set our conditions for flow cytometry, titrations of PD-L1 peptide using all three cell lines were first examined. In each of the samples double-positives were selected by analyzing expression of both cytokeratin (FITC channel) and PD-L1 (Cy5 channel) (FIG. 15). […] Samples containing 0.1 and 0.05 mg/mL concentrations were deemed to have fluorescence intensities too high for accurate analysis for each cell line. Y79 and MCF7 both have a much lower PD-L1 expression than MDA-MB-231, which correlates with expression seen using Cy5 conjugated peptide and comparing the cell lines with flow cytometry. […] The MCF7 sample containing 0.005 mg/ml was much higher than anticipated due to this sample being treated twice with peptide. 0.005 mg/mL was selected as optimal concentration based on these comparisons, and all subsequent flow cytometry experiments were performed using this concentration. Lung cancer cell lines A549 (low PD-L1) and HCC827 (high PD-L1) were investigated for PD-L1 expression using both phycoerythrin-conjugated cd274 and RK-10-Cy5 (FIG. 6B). Cell lines were cultured as before and treated with either antibody or peptide in buffer. […] The antibody associated fluorescence was higher than the peptide associated fluorescence in both samples, which is attributed to differences in titrating peptide and antibody.

In test [3] the target is T1, PD-L1. In words: Peptide library study of stability and PD-L1 affinity. It counts as binding. Particulars: library of synthesized peptides. The protocol:
Initial research was focuses on understanding the interaction of PD-1 and PD-L1 based on X-ray crystal structure data (FIG. 14) with the goal of identifying the peptide sequence that is selectively mediating the interactions. After the crystal structure of each protein was identified, a proprietary Fortran program was used to analyze which amino acid sequences interact most closely between the two proteins. Number of occurrences for each sequence was calculated and used to identify the peptide sequences used in this study. […] As a first step, a library of peptides was synthesized and the stability and PD-L1 affinity was studied. […] Data related to anti-PD-L1 and mock peptide was used to synthesize peptides for this study. The binding sequences of each peptide were further modified to incorporate either biotin or fluorophore for antigen detection, and to increase solubility of the peptide.

T1 sequence (Q9NZQ7 19-290): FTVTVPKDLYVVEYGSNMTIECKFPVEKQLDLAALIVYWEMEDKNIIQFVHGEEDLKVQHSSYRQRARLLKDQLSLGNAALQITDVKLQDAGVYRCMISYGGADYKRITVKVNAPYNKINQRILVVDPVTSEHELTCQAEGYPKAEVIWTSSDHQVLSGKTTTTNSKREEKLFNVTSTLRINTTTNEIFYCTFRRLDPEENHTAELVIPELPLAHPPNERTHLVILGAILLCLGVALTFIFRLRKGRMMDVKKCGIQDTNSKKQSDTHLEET

On to “Cy5-GSGSGSTYLCGAISLAPKAQIKESL [RK-10-Cy5]”, for which the “mean fluorescence intensity (MFI)” value with PD-L1 [1] (metastatic melanoma patient sample) is 1,250; with PD-L1 [1] (normal whole blood (negative control), FIG. 7A) it was −123; with PD-L1 [1] (squamous cell carcinoma patient sample), 107,808; with PD-L1 [2] (MDA-MB-231 cells (very high PD-L1), Cy5 channel, 0.005 mg/mL peptide, FIG. 7A) it was 9,448. Besides, the “low cell count at which positive cytokeratin and PD-L1 signals were detected” value with PD-L1 [1] (whole blood spiked with MDA-MB-231 cells, FIG. 7B) was about 15 cells in 1 mL whole blood. The “MFI relative to MDA-MB-231” value with PD-L1 [2] (MCF7 cells (no meaningful PD-L1 expression)) and with PD-L1 [2] (Y79 cells (no meaningful PD-L1 expression)) was “close to tenfold lower” throughout. The “signal associated with PD-L1 expression, HCC827 versus A549” value in the test with PD-L1 [2] (lung cancer lines HCC827 (high PD-L1) vs A549 (low PD-L1), FIG. 6B) is recorded as “much higher signal”. Moreover, the PD-L1 affinity entry in the test with PD-L1 [3] was “high affinity”.
